{"source": "patent US9957308B2", "about": "“Method for detecting bilirubin using a fluorescent protein” (RIKEN, priority 2013, dated 2018)", "molecules": {"B1": {"name": "R82EK84E mutant: UnaG with 82nd amino acid R and 84th amino acid K substituted by E; SEQ ID NO: 5 (protein, listed as Anguilla japonica)", "chain": "MVEKFVGTWKIADSHNFGEYLKAIGAPKELSDGGDATTPTLYISQKDGDKMTVKIENGPPTFLDTQVKFKLGEEFDEFPSDEREGVKSVVNLVGEKLVYVQKWDGKETTYVREIKDGKLVVTLTMGDVVAVRSYRRATE"}, "B2": {"name": "A12ES80N mutant: UnaG variant with substitution of A at 12th position to E and S at 80th position to N; SEQ ID NO: 29 (protein, listed as Anguilla japonica)", "chain": "B1 chain with A12E, S80N, E82R, E84K"}}, "key": {"[1]": {"molecular_target": "T1, Japanese eel (Anguilla japonica) UnaG, wild type, SEQ ID NO: 1 (Anguilla japonica, UniProt P0DM59)", "T1 construct": "GST (N, cleaved yes); made in house; host or cells: Escherichia coli BL21 (DE3)", "assay": "Dissociation constant by bilirubin titration of apo UnaG (fluorescence at 527 nm, curve fitting)", "format": "binding", "settings": "wild-type apo UnaG 5 nM, titrated with bilirubin to 10 nM", "description": "The capacity of binding to bilirubin can be evaluated through calculation of dissociation constant (Kd) by curve-fitting of correlation between the amount of bilirubin and the fluorescence intensity of UnaG protein. In one instance, “reduced capacity of binding to bilirubin compared to UnaG” means that the dissociation constant, Kd, is larger than that of UnaG.\nThe dissociation constant can be calculated by a known method, for example, by the following computation expression: Y=[Kd+Bt+Pt−{(Kd+Bt+Pt}^1/2]/(2×Pt) where Y represents the degree of binding of bilirubin (fluorescence intensity); Kd represents the dissociation constant; Bt represents the concentration of bilirubin; and Pt represents the concentration (5 nM) of apo UnaG protein.\n(§1) An apo UnaG protein solution having an apo UnaG protein concentration of 5 nM was titrated with bilirubin to give a final concentration of bilirubin of 10 nM, and the fluorescence spectrum was measured with a fluorescence spectrophotometer.\nApo A12ES80N mutant protein was titrated with bilirubin, and the fluorescence intensity was measured with a spectrophotofluorometer F-2500 (Hitachi High-Technologies Corporation). The results were plotted. Data analysis and fitting with graph plotting software Origin (OriginLab Corporation) were performed to determine the dissociation constant (Kd). […]"}, "[2]": {"molecular_target": "T2, Japanese eel (Anguilla japonica) UnaG variant A12ES80N (A12E, S80N), SEQ ID NO: 29 (Anguilla japonica, UniProt P0DM59, A12E/S80N)", "T2 construct": "made in house; host or cells: Escherichia coli JM109 (DE3)", "T2 sequence (P0DM59 whole entry A12E/S80N, the tested form may be a part)": "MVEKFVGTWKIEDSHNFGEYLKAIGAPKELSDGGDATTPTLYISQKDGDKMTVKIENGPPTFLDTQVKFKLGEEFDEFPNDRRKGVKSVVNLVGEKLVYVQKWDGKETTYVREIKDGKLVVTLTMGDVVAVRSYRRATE", "assay": "Dissociation constant by bilirubin titration of apo A12ES80N mutant (fluorescence, curve fitting)", "format": "binding", "method": "as §1\nA DNA fragment of A12ES80N mutant was ligated into BamHI and EcoRI restriction enzyme sites of pRSETB-FLAG vector, which was Escherichia coli expression vector pcRSETB including a FLAG tag sequence (SEQ ID NO: 26) at the KpnI/BamHI restriction enzyme sites, and was transformed into Escherichia coli strain JM109 (DE3) for subcloning. […]\nThe bacterial cells were suspended in 5 mL of PBS, and 50 μL of lysozyme (4 mg/mL) was added thereto. […] Subsequently, His-FLAG-UnaG mutant protein was eluted by adding each 500 μL of PBS containing 300 mM imidazole to the carrier, and the elution fraction was detected by a bradford method. […] The concentration of the purified His-FLAG-UnaG mutant protein was determined by the following computation expression based on the absorbance A280. […]\nApo A12ES80N mutant protein was titrated with bilirubin, and the fluorescence intensity was measured with a spectrophotofluorometer F-2500 (Hitachi High-Technologies Corporation). […]"}, "[3]": {"molecular_target": "T1, Japanese eel (Anguilla japonica) UnaG, wild type, SEQ ID NO: 1", "assay": "Fluorescence of apo UnaG reconstructed with bilirubin or bilirubin analogs (ligand specificity)", "format": "biochemical", "settings": "apo UnaG 0.5 μM; ligand 0.125-2.0 μM; room temperature 30 min; excitation 497 nm, fluorescence 527 nm", "method": "FIG. 5 is a graph showing specificity of UnaG protein in Example of the present invention to unconjugated bilirubin. Apo UnaG (0.5 μM) was mixed with a ligand: bilirubin (unconjugated) at various concentrations or a bilirubin analog, biliverdin, urobilin, or ditaurobilirubin, at various concentrations, and the fluorescence intensity at each concentration was measured. The vertical axis indicates fluorescence intensity, and the horizontal axis indicates concentration (μM) of each ligand.\nBilirubin or a bilirubin analog, biliverdin (Toronto Research Chemicals), urobilin (MP Biomedicals), or ditaurobilirubin (Frontier Scientific), was diluted with PBS such that the final concentration was 0.125 μM, 0.25 μM, 0.5 μM, 1.0 μM, or 2.0 μM and was mixed with 0.5 μM apo UnaG protein. The mixture was left to stand at room temperature for 30 min. Subsequently, 200 μL of the mixture was added to each well of a 96 well microplate (Greiner Bio-One) and was subjected to measurement of the fluorescence intensity at a wavelength of 527 nm with excitation light having a wavelength of 497 nm using EnSpire multi-mode plate reader (PerkinElmer Co., Ltd.)."}, "[4]": {"assay": "Measurement of fluorescence spectrum, absorption spectrum, quantum yield and fluorescence lifetime", "format": "physicochemical", "method": "In order to analyze the fluorescent properties of UnaG protein, the fluorescence spectrum, absorption spectrum, and quantum yield were measured. The excitation spectrum and the fluorescence spectrum were measured with a spectrophotofluorometer, RF-5300PC (Shimadzu Corporation), at an excitation wavelength of 475 nm and a fluorescence wavelength of 550 nm. The absorption spectrum was measured with a spectrophotometer, U-2900 (Hitachi High-Technologies Corporation). The quantum yield was measured with an absolute quantum yield measurement system, Quantaurus-QY (Hamamatsu Photonics K.K.) at excitation wavelengths of 470 nm and 480 nm. A known fluorescent protein, EGFP, was similarly measured, and the values were compared to those of UnaG protein.\nIn order to analyze the fluorescent properties of R82EK84E mutant, the fluorescence spectrum, absorption spectrum, and quantum yield were measured. The measurement was performed by the same method as that described in the above-described paragraph 3. The fluorescence lifetime was measured with a small-sized fluorescence lifetime measurement system, Quantaurus-Tau (Hamamatsu Photonics K.K.) and was compared to that of wild-type UnaG protein.\nThe fluorescence spectrum, absorption spectrum, and quantum yield (excitation wavelength: 470 nm) were measured for analyzing the fluorescent properties of holo A12ES80N mutant protein. The measurement was performed by the same method as that described in paragraph 3, above. The fluorescent properties were compared to those of wild-type UnaG protein."}, "[5]": {"assay": "Evaluation of aggregability of protein by dynamic light scattering particle diameter", "format": "physicochemical", "method": "Protein solutions (each 20 μL) of wild-type UnaG protein (10 mg/mL) and R82EK84E mutated UnaG protein (8.5 mg/mL) were each supplied to Microtrac particle size analyzer MT3000II (Nikkiso Co., Ltd.), and the particle diameters were measured by a dynamic light scattering. The aggregability was evaluated by plotting frequency against particle diameter."}, "[6]": {"settings": "Table 3, wild-type vs R82EK84E mutant"}, "[7]": {"settings": "Table 3, wild-type vs R82EK84E mutant, holo form reconstructed with bilirubin"}, "[8]": {"settings": "Table 4, wild-type vs holo A12ES80N mutant"}}, "note": "Changes are numbered by the printed parent chain.", "data": [{"molecule": "C=CC1=C(C)/C(=C/c2[nH]c(Cc3[nH]c(/C=C4\\NC(=O)C(C)=C4C=C)c(C)c3CCC(=O)O)c(CCC(=O)O)c2C)NC1=O", "note": "[bilirubin]", "values": [{"measurement": "Kd", "setting": "[1]", "value": 0.098, "unit": "nM"}, {"measurement": "Kd", "setting": "[2]", "value": 1.9, "unit": "nM"}, {"measurement": "fluorescence emission of UnaG on addition of ligand", "setting": "[3]", "value": "the fluorescence of UnaG is specific to bilirubin"}]}, {"molecule": "B1", "values": [{"measurement": "Molar extinction coefficient", "setting": "[4]; [6]", "value": "50,870 M^−1 cm^−1"}, {"measurement": "Quantum yield", "setting": "[4]; [6]", "value": 61, "unit": "%"}, {"measurement": "Maximum excitation wavelength", "setting": "[4]; [7]", "value": 498, "unit": "nm"}, {"measurement": "Maximum fluorescence wavelength", "setting": "[4]; [7]", "value": 527, "unit": "nm"}, {"measurement": "Fluorescence lifetime (τ1/ns)", "setting": "[4]; Table 3, wild-type vs R82EK84E mutant, Quantaurus-Tau", "value": 2.2, "unit": "ns"}, {"measurement": "dispersibility / aggregation compared to the wild-type", "setting": "[5]", "value": "improved dispersibility"}, {"measurement": "particle diameter distribution (peaks)", "setting": "[5]; wild-type 10 mg/mL, R82EK84E mutant 8.5 mg/mL", "value": "single peak"}]}, {"molecule": "B2", "values": [{"measurement": "Maximum excitation wavelength", "setting": "[4]; [8]", "value": 499, "unit": "nm"}, {"measurement": "Maximum fluorescence wavelength", "setting": "[4]; [8]", "value": 527, "unit": "nm"}, {"measurement": "Molar extinction coefficient", "setting": "[4]; [8]", "value": "56,210 M^−1 cm^−1"}, {"measurement": "Quantum yield", "setting": "[4]; Table 4, excitation wavelength 470 nm", "value": 46.8, "unit": "%"}]}]}
